Columns and labels:
[1] = target: rabbit skeletal actin filaments (rabbit) (UniProt P68135)
[2] = target: pyrene-labeled rabbit skeletal actin filaments (rabbit) (UniProt P68135); test: other fluorescence titration; stopped-flow, quenching of pyrene-actin fluorescence; 0.05-0.3 μM EGFP-M15-2IQ mixed with 0.5-3 μM pyrene actin; with saturating ADP (0.5 mM in the text, 1 mM in the legend), apyrase omitted; apparent rate constants from linear fit of kobs against [actin], KD …; 20-mM Mops (pH 7.0), 100-mM KCl, 5-mM MgCl2, 0.1-mM EGTA, 20 °C
[3] = target: rabbit skeletal actin filaments (rabbit) (UniProt P68135); remark: listed apart in the source
[4] = target: pyrene-labeled rabbit skeletal actin filaments (rabbit) (UniProt P68135); test: other fluorescence titration; stopped-flow, quenching of pyrene-actin fluorescence; 0.05-0.3 μM EGFP-M15-2IQ mixed with 0.5-3 μM pyrene actin; nucleotide-free (apyrase-treated); apparent rate constants from linear fit of kobs against [actin], KD calculated as k-6/k+6; 20-mM Mops (pH 7.0), 100-mM KCl, 5-mM MgCl2, 0.1-mM EGTA, 20 °C

Substance | actin-activated steady-state ATPase (NADH assay, 10-mM KCl, 20 °C), K ATPase; myosin from the Sf9-UNC45A cell line [1] [mM] | actin-activated steady-state ATPase (NADH assay, 10-mM KCl, 20 °C), K ATPase; myosin from the Sf9-UNC45B cell line [1] [mM] | Kd [2] [nM] | koff [2] [s⁻¹] | kon [2] [M⁻¹ s⁻¹] | actin-activated steady-state ATPase (NADH assay, 10-mM KCl, 20 °C), K ATPase; myosin from Sf9 coexpressing UNC45A (baculovirus) [1] [mM] | actin-activated steady-state ATPase (NADH assay, 10-mM KCl, 20 °C), K ATPase; myosin from Sf9 coexpressing UNC45B (baculovirus) [1] [mM] | actin-activated phosphate release (double-mixing stopped flow, MDCC-PbP), apparent association rate constant K9·k′+4 of M·ADP·Pi with actin, from the fast phase against [actin] up to 50 μM [3] [M⁻¹ s⁻¹] | Kd [4] [nM] | koff [4] [s⁻¹] | kon [4] [M⁻¹ s⁻¹]
M15-2IQ-EGFP motor domain complex (M15-2IQ-EGFP:ELC:RLC) (from UniProt Q9QZZ4-3 1-743; P60661 1-151) | 0.0052 | 0.007 | – | – | – | – | – | – | – | – | –
EGFP-M15-2IQ motor domain complex (EGFP-M15-2IQ:ELC:RLC) (from UniProt Q9QZZ4-3 1-743; P60661 1-151) | – | – | 310 | 0.55 | 1.75e+06 | 0.0061 | 0.0104 | 130000 | 200 | 0.65 | 3.18e+06

From paper PMC7948958
